From the nanobody polyreactivity screen of Harvey et al. (2022)

Test: yeast display, Sf9 membrane polyspecificity reagent, FACS + sequencing; frameworks hold sequencing errors
Procedure, shortened: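 Genes from sorted yeast were amplified by colony PCR, read by MiSeq 2 × 250 sequencing and filtered on CDR length. These cells carried a synthetic nanobody library in Saccharomyces cerevisiae BJ5465 and were sorted by FACS into low and high (top ~1%) gates on anti-HA and streptavidin fluorescence. Polyreactivity is labelled according to the gate of origin.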

Sequence | polyreactivity (PSR sort gate)
QVQLVESGGGLVQEGGSLRLSCAAYGSTSYRYAMGWYRQAPGKERELVAASSSSGGSTYYADSVKGRFTISRDNEKNTVYLQMNSLKPEDSAVYYCAARFYSGPGGYTMYYWGQGTQVSVSS | high polyreactivity
QVQLVESGGGLVQAGGSLRLSCAASGRIFFLYAMGWYRQAPGKERELVASITRRGGSTYYADSVKGRFTISRDNAKNTVYLQMKSLKPEDTAVYYCAAELYRSNVYHYDYWGQGTQVTVSS | high polyreactivity
QVQLVESGGVLVQAGGSLRLSCAASGRTFGHYAMGWYRQAPGKERELVAAITRDDGTNYADSVKGRFTISRDNAKNTVYLQMNSLKPEDTAVYYCDRDVLEKYRQSWGYVPLQGYDYWGQGTQVTVSS | low polyreactivity
QVQLVESGGGLVQAGGSLRLSCAASGSIFSGYVMGWYRQAPGKERELVAAIDNSSGSTYYADSVKGRFTISRDNAKNSVYLQMNSLKPEDTAVYYCAAAYYWKAYSEYDYWGQGTQVTVSS | low polyreactivity
QFQLVESGGGLVQAGGILRLSCAASGSTFCVYAMGWYRQAPGKERELVATINSGGSTNYADSVKGRFTISRDNAKNTVYLQMNSLKPEDTAVYYCAAGPFWQDFYVYEYDYWGQGTQVTVSS | low polyreactivity
QVQLVESGGGLVQAGGSLRLSCAASGFTFIYYAMGWYRQAPGKERELVAAISASGGSTYYADSVKGRFTISRDNAKNTVYLQMNSLKPEDTAVYYCAADALIYYKGSPDYYWGQGTQVTVSS | high polyreactivity
QVQLVESGGGLVHAGGSLRLSCAASGYSSSQNAMVWYRQEPGKERELLARITTDGTSTYYADSVKGRFTISRDNAKNTVYLHMNSLKPEDTAVYYCNARYPAYVVRSWYPYAYYYWGQGTQVTVSS | low polyreactivity
QVQLQECGGGLVQAGRSLRLSCAASGTFSNSVKWLYCQAPGKEREFVATIGVGGSTNYADSVKGRFTISRDNAKYTVYLQMNSLKPEDTGVYHCAGYGAASNFHYDRGQGTQVTVSS | low polyreactivity
QVQLVESRGGLVQAGGSLRLSCAASGSIFIYNAMGWYRQAPGKERELVAANSSSGGSTYYADSVKGRFTNSRDNEKNTVYLQMNSQNPEDTAVYYCAARTYYVRGLRGRPGMDYWGQGTQVTVSS | low polyreactivity
QVQLVESGGGLVQAGGSLRLSCAASGITFIVKTMGWYRQAPGKEREFVATISANSDGTYYADSVKGRFTISRDNAKNTVYLQMNSLKPEDTAVYYWGQGTQVTVSS | low polyreactivity
QVQLVESGGGLVQAGCSLRLSCAASGFTFDQYAMGWYRQAPGKEREFVAGNSYGRGRTYYADSVKGRFTISRDNAKNNFYLQMNSVKPEVTAVYYCAADGVYRYNYPYLYTYDYWGQGTQVTVSS | low polyreactivity
QLQLEESCGGLVQAGGSLRLSCAATGFIFGKYAMGWYRQAPGKQREFVAAITRSGGSTYYADSVKGRVTISRDNAKNTVFLQMFCLKPEDTAVYYCNARISERGWRYYYWGHGTQVTVSS | high polyreactivity
QVQLVESGGGLVQAGGSLRLSCAASGRNFRSYVMGWYRQAPGKERELVASIRNRGGTTYYADSVKGRFTISRDNAKNTVYLQMNSLKPEDTAVYYCNAAPARTVYAQSSYVLYDYWGQGTQVTVSS | low polyreactivity
QVQLVESGGGLVQAGGSLRLSCAASGSTFLGNAMGWYRQAPGKERELVATITGSSGSTYYADSVKGRFTISRDNAKNTVYLQMNSLKPEDTAVYYCNTVYNYWDGYDYWGQGTQVTVSS | low polyreactivity
QVQLVESGGGLVQAGGSLRLSCAASGFTFYRNDMGWYRQAPGKEREFVAAITTSGGSTYYADSVKGRFTISRDNAKYTVYLQMNSLKPEDTAVYYCNAYGDGYWKTFGYWGQGTQVTVSS | high polyreactivity
QVQLVESGGGLGQAGGSLRLSCAASGRIFNTYAMGWYRQAPGKERELVAAITRSAGRTYYADSVKGRFTISRDNAKNTGYLQMNSQKPEDTAVYYCAAQYNYGQRSGPYGYWGQGTQVTVSS | low polyreactivity
QVQLVESGGGLVQAGGSLRLICAASGSTYDRNVLGWYRQEPGKERELVAAISRVSSTNYADSVKGRFTISRDNAKNTVYLQMNSLKPEDTAVYYCAADRAGSIMNYWGQGTQVTVSS | low polyreactivity
QVQLVESGGGLVQAGGSLRLSCAASGFIFPYYALGWYRQAPGKEREFVAAISKTAGRTYYADSVKGRFTISRDNAKNTVYLQMNSLKPEDTAVYYCAVGNKRDAYYQYSSYGYWGQGTQVTVSS | low polyreactivity
QVQLVESGGGLVQAGGSLRISCAASGFTFALYAMGWYRQAPGKERELVAAITRRGGSTYYADSVKGRFTISRDNAKNTVYLQMNSLKPEDTAVYNCAKRERAIKVSRYDSHDYWGQGTQVTVSS | high polyreactivity
QVQVVESGGGLVQAGGSLRLSCAASGSTFVTYAMGWYRQARVKERELVAGISTGDITNYADSVKVRFTISRDNAKNTVYLQINRLKPEDTAVYYCSADLIQGAAPFRYDYWGQGTQVTVSS | low polyreactivity
QVQLVASGGGLLQAGGSLRLSCAASGRILRVYAMGWYRPAPGKESELVAAITWRGGSTYYADSVKGRFTISRDNAKNTVYLQMNSLKPEDTAVYYCAAEAYSYGYSALLYDYWGQGTQVTVSS | high polyreactivity
QVQLVESGVGLVQAGGSHPLSCAASGSTLRYAMGWNRQAPGKETELVAAISRTGGSTYYADSVKGRFTISRDNAKNTVYLQMNSLKPEDPAVYYCAARYFTSYPLYYYWGQGTQVTVSS | high polyreactivity

Sequence | polyreactivity (PSR sort gate)
QVQLVESGGGLVQPGGSLRLSCAASRSIFKVYAMGWYRQEPGKEREFVAAITSSDSNTNYADSVKGRFTISRDNAKNTVYLQMHSLKPEDTAVYYCNARIYNRRYVPHYGFNYWGQGTQVTVSS | low polyreactivity
QVQLVESGGGLVQAGGSLRLSCAASGSIFQYYVMGWYRQAPGKERELVAAISQSGGRTYYADSVKGRFTISRDNAKNTFYLQMNSLKPEDTAVYYCAAYSRNAEYDYWGQGTQVTVSS | high polyreactivity
QVQLVESGGGLVQAGGSLRLSCAASGRTFKPYAMGWYRQAPGKERELVAVITSNGSSTYYADSVKGRFTISRDNAKNTVYLQMNSLKPEDTAVYYCATKLTYTLTSGAYAYDYWGQGTQVTLSS | low polyreactivity
QVQLVESGGGLVQAGGSLRLSCAASGIIFTYYAMGWYRQAPGKERELVAAISVSGSSTYYADSVKARFTISRDYAKNTVYLQMNRLKPEDTAVYYCAVKQGFYSRALKLYYWGQGTQVTVSS | high polyreactivity
QVQLVESGGGLVQAGGSLRLSCAASGFTFRRNAMGWYRQAPGKERELVAVITTAGSTNYADSVKGRFTISRDNAKNTVYLQMTSLKPEDTAVYYCATDNGTRKRRYDYWGQGTQVNVSS | low polyreactivity
QVQLVESGGGLVQAGGSLRLSCAASGGTFGRNVMGWYRQAPGKERELVAAISIRGGSTYYADSVKGRCTISRDNAKNTVYLQMNSLKAEDTAVYYCARDYPTDAYDYWGQGTQVTVSS | low polyreactivity
QVQLVESGGGLVQAGGSLRLSCAAYGSIFETYVMGWYRQAPGKERELVAAINSGGSTNYADSVKGRFTISRDNAKNTVYLQMNSLKPEDTAVYYCNADWFTPAQPWYRYFIRYDYWGQGTQVTVSS | low polyreactivity
QVQLVESGGGLVQAGGSLRLSCAASGSIFRRNAMGWYRQAPGKERELVAAIRSGGGTNYADSVKGRFTISRDNAKNTVYLQMNSLKPEDTAVYYCAAVYERYYLFEYDYWGQGTQVTVSS | low polyreactivity
QVQLVESGGGLVLAGGSLRLSCAASGFTFPHYAMGWYRQAPGKERELVAVISWSGSSTYYADSVKGRFTISRDNAKNTVYLQMNSLKPEDTAVYYCNTRKLYQVDYDYWGQGTQVTVSS | high polyreactivity
QVQLVESGGGLVQAGGSLRLSCAASGRIFRYYAMGWYRQAPGKERELVAAITAGGGTTYYADSVKGRFTISSDNAKNTVYLQMNSLKPEDTAVYYCAKDGRYYSHYNYWGQGTQVTVSS | high polyreactivity
QVQIVESGRGLVQAGGSLRLSCAPSGFNIPTNGMGWYRQATGKEREFVASITWRGGGTYYAESVKGRFTISRDNAKNTVFLQMNSLKPEDTAVYYCAAGRSWSSYWKYDYWGLGTQVTVSS | low polyreactivity
QVQLVESGGGLVPARGSLRLSCAASGSTFSDNAMGWYRQAPGKERELVAAINWSVGSTYYADSVKGRFTISRDNAKNTVYLQMNRRKPEDTAVYYCAGGYSLYESLVIFDYWGQGTQVTVSS | low polyreactivity
QVQIVESGGGLVQAGGSLRLSCAASGRTFIGNVMGWYRQAPGKERELVAAISKSGTRTYYADSVKGRFTISRDNAKNTFYLQMNSLKPEDTAVYYCAKDHYPRTDDFGYWGQGTQVTVSS | high polyreactivity
QVQLVESGGGLVQAGGSLRLSCAASGSTFYYYAMGWYRQAPGKEMELVAAINWSGASTYYADSVKGRFTISRDNAKNTVYLQMNSLIPEDTAVYYCAAGYAGGYGVTFDYCGQGTQVTVSS | low polyreactivity
QVQLVESGGGLVQAGGSLRLSCAASGNIFSKYVRGWYRQARGKERELVAAITYSGGSTYYADSVKGRFTISRDNSKNTVYLQMNSLKPEDTGVYYCNAVRRRSSLKLDSWGQGTQVTVSS | high polyreactivity
QVQLVESGGGLLQAGGSLRLSCAASGRIFGVYAMGWYRQAPGKEMELVAAISWGGGSTYYADSVKGRFTISRDNAKNTVYLQMISLKPEDTAVFDCAADPPDGFYYTWDYDYWGQGTQVTVSS | low polyreactivity
QVQLVESGGGLVQAGGSLRLSCAASGRTCWSYAMGWYRQAPGKEREVVATITGRGGSTYYADSVKGRFTISRDNAKNTVYLQRNSLKPEDTAVYYCAVRSKYRRTFGSWGQGTQVTVSS | high polyreactivity
QVQIVESGGGLEQAGGSLRLSCAASGRIFNRYAMGWYRQAPGKDWELVARNSWSGARTYYADSVKGRFTISRDNAKNTVYLQMNRLKPEDTAVSYCAAAVTYPAGGRTSLYEYWGQRTQVTVSS | high polyreactivity
QVQLVESGGGLVQAGGSLRLSCAASGFTFRAYVMGWSRQAPGKERELVAAISRSGGSTYYADSVKGRLTISRDNAKNTVYLQMNSLKPEDTAVYYCAAGVPGPRVKIQARFDYWGQGTQVTVSS | high polyreactivity
QVQLVESGGGLVQAGGSLRLSCAASGFIFRPYAMGWYRQAPGKERELVATISYRGGSTDYADSVKGRFTISRDNAKNTVYLQMNSLKPEDTAVYYCNAGYNRGYYYPVFAFFPYEYWGQGTQVTVSS | low polyreactivity
QVQLVESGGGLVQAGGSLRLSCAASGLTFQGYAMGWYRQAPGKERELVAAISSSGDITYYADSVKGRFTISRDNAKNTVYLQMNSLKPEDTAVYYCAAEAEYYVYGTYDYWGQGTQVTVSS | high polyreactivity
